T1: TR4 (Homo sapiens, UniProt P49116)
T1 construct: full-length AR and TR4 in eukaryotic expression vectors (pSG5AR and pCMXTR4) were co-transfected; expressed in transfected cells; host or cells: H1299, HepG2
T1 sequence (P49116 1-615 isoform P49116-2 N175S/W419R/A428G/K503N/L504W/A613V): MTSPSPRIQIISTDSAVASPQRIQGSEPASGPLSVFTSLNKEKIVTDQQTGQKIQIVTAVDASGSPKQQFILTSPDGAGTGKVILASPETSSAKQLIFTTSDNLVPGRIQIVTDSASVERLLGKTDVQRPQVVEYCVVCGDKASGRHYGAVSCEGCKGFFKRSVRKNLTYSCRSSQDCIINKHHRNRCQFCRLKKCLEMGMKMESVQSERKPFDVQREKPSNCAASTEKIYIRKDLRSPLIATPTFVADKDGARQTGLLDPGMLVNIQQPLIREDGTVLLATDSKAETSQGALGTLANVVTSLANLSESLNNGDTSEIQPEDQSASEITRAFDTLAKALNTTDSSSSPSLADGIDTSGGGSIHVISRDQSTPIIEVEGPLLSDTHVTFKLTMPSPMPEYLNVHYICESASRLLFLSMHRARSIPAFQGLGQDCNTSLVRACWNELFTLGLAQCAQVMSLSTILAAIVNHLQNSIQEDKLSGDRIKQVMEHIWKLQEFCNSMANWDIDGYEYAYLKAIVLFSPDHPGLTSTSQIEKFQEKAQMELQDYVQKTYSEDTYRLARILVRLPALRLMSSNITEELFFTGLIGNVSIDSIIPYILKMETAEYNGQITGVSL

T2: GR (Homo sapiens, UniProt P04150)
T2 construct: expressed in transfected cells; host or cells: H1299, PC-3 (pSG5-GR)
T2 sequence (P04150 1-777): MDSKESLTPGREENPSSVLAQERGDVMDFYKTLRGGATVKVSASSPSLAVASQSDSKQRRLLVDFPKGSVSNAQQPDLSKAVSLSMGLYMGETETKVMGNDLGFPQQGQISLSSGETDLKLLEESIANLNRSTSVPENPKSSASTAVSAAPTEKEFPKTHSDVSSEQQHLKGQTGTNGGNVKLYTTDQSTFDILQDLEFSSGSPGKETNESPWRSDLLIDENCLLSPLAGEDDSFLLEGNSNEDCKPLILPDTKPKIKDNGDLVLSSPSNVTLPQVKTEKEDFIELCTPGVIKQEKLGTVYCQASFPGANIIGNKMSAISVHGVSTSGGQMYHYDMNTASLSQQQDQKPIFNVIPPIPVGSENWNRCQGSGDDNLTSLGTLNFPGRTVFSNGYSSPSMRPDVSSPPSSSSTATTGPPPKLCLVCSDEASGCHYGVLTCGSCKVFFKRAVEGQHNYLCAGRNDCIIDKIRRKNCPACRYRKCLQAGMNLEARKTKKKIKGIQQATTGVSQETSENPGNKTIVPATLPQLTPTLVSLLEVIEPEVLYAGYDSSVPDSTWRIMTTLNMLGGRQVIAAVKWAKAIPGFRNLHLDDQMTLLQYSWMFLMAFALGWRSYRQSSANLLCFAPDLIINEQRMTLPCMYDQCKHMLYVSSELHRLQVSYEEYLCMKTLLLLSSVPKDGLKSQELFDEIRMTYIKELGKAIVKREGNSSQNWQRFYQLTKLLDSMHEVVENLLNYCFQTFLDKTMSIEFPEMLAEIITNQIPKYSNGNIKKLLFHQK


Columns and labels:
TR4 = target: T1, TR4; assay: TR4-mediated transactivation reporter assay; format: cell-based
Method: Cells were routinely maintained in DMEM with 10% heat-inactivated fetal bovine serum. The cells were transfected using a modified calcium phosphate precipitation method, Mizokami, & Chang, J: Biol. Chem. 269,25655-25659 (1994), or SuperFect (Qiagen). To normalize the transfection efficiency, the (3-galactosidase expression ver and pRL-TK were co-transfected in CAT assay and in Dual-luciferase reporter assay system (Promega), respectively.
More specifically, 500 ng of reporter plasmids were co-transfected(DR4-CAT and CNTFR-15-LUC) with 200 ng of pCMX-TR4 and increasing amounts of pCMV-AR (200, 600, and 1,200 ng), pSG5GR (1,200 ng), or pSG5 PR (1,200 ng) using the SuperFect transfection kit (Qiagen) (PCMV AR Mowszowicz et al., (1993) Molecular Endocrinology 7:861:869). […] Similar results were obtained when the DR4-TK-CAT reporter was replaced with DR1-CNTFR-15-LUC, another TR4 response element (FIG. 3A). Young, et al., J: Biol. Chem. 272,3109-3116 (1997).
Another TR4 potential target gene, which is located in the hepatitis B virus (HBV) enhancer II region (−34 to −7) containing a classic DR1 motif. Breidbart, et al., Pediatric Res. 34,300-302 (1993), was investigated. The reporter plasmid CpFL(4)-LUC, which contains the HBV core promoter (Cp) sequence located between −34 and −7 (nucleotide coordinates 1751 and 1778 derived from the Genbank database) was shown above in FIG. 3B. The arrows indicate the DRI motif in HBV core promoter. HepG2 cells were co-transfected with 1.5 μg CpFL(4)-LUC reporter and 0.5 μg pCMX-TR4, with increasing amounts of pCMV-AR (0.5, 2.5, and 5 μg) by modified calcium phosphate precipitation method. The relative reporter gene activities were compared to the CAT activities (or luciferase activities) with vector alone. To normalize the transfection efficiency, the β-galactosidase expression vector and pRL-TK were co-transfected in the CAT assay and in the Dual-luciferase reporter assay system (Promega), respectively.

GR = target: T2, GR; assay: GR-mediated transactivation (MMTV reporter); format: cell-based
Method: To eliminate the potential artificial effects caused by overexpression of exogenous ER, T47D cells were used as a model to test the TR2 suppression effect on the endogenous ER-mediated transactivation. T47D cells were transfected with 1 μg of ERE-CAT reporter plasmid together with increasing amounts of the TR2 expression plasmid. […] All of the cells also were transfected with a galactosidase expression plasmid, pCMV-β-gal to normalize the transfection efficiency. As expected, the TR2 can still repress the endogenous ER-mediated ERE-CAT activity (FIG. 8B). For a control, the potential suppression effect of the TR2 on other steroid receptors-mediated transactivation was also tested, such as PR or GR. H1299 cells were co-transfected with 1 μg of MMTV-CAT reporter plasmid and 1 μg of PR or GR expression plasmid together with increasing amounts of the TR2 expression vector. […] AU of the cells also were transfected with a β-galactosidase expression plasmid, pCMV-β-gal to normalize the transfection efficiency.
AR is known to be highly involved in prostate cancer progression, and both TR2 and AR are expressed in prostate cancer, therefore the TR2 effect on AR transactivation activity was analyzed.

Molecule	CAT activity induced by pCMXTR4 (DR4-TK-CAT; similar with DR1-CNTFR-I5-LUC) (TR4; H1299 cells, absence or presence of DHT)	TR4-induced CpFL(4)-LUC activity (HBV core promoter) (TR4; HepG2 cells, increasing pCMV-AR)	Activity TR4 (effect of regulator on transcription activity) (TR4; Table 5)	GR-mediated transactivation (MMTV-CAT) (GR; H1299 cells, 10^−8 M glucocorticoid, increasing TR2)	GR-mediated transactivation (MMTV-CAT) (GR; PC-3 cells, 10 nM dexamethasone, pCMV-TR2)	GR-mediated transcription (MMTV-CAT) (GR; T47D cells, Example 2)
AR: androgen receptor, SEQ ID NO:31	repressed significantly	significantly decreased	Down	–	–	–
TR2: human testicular orphan nuclear receptor 2, 603 amino acids (protein, UniProt P13056 1-603, looked up, full-length, human testicular orphan nuclear receptor 2, 603 amino acids) MATIEEIAHQIIEQQMGEIVTEQQTGQKIQIVTALDHNTQGKQFILTNHDGSTPSKVILARQDSTPGKVFLTTPDAAGVNQLFFTTPDLSAQHLQLLTDNSPDQGPNKVFDLCVVCGDKASGRHYGAVTCEGCKGFFKRSIRKNLVYSCRGSKDCIINKHHRNRCQYCRLQRCIAFGMKQDSVQCERKPIEVSREKSSNCAASTEKIYIRKDLRSPLTATPTFVTDSESTRSTGLLDSGMFMNIHPSGVKTESAVLMTSDKAESCQGDLSTLANVVTSLANLGKTKDLSQNSNEMSMIESLSNDDTSLCEFQEMQTNGDVSRAFDTLAKALNPGESTACQSSVAGMEGSVHLITGDSSINYTEKEGPLLSDSHVAFRLTMPSPMPEYLNVHYIGESASRLLFLSMHWALSIPSFQALGQENSISLVKAYWNELFTLGLAQCWQVMNVATILATFVNCLHNSLQQDKMSTERRKLLMEHIFKLQEFCNSMVKLCIDGYEYAYLKAIVLFSPDHPSLENMEQIEKFQEKAYVEFQDYITKTYPDDTYRLSRLLLRLPALRLMNATITEELFFKGLIGNIRIDSVIPHILKMEPADYNSQIIGHSI	–	–	–	little effect	less suppression effect	marginal effect

Source: patent publication US20030235860A1, “Interactions between AR, ER, TR2, and TR4” (priority 1999, published 2003)
